# Results as given in article PMC10819763, “Reconstitution of the phosphodiesterase 6 maturation process important for photoreceptor cell function” (The Journal of Biological Chemistry, 2023).
# “And” between values parts separate entries of the source, which are not always exact repeats. Equal values may be shown once.
# B1: His6-tagged bovine Pγr (rod PDE6 inhibitory γ-subunit), bacterially expressed (natural protein, UniProt P04972 1-87, looked up)
# chain: MNLEPPKAEIRSATRVMGGPVTPRKGPPKFKQRQTRQFKSKPPKKGVQGFGDDIPGMEGLGTDITVICPWEAFNHLELHELAQYGII
# notes: also called rod Pγ; purified recombinant Pγr
# B2: human cone PDE6C (aa 1-830), expressed as an EGFP fusion protein and released with HRV-3C protease (enzyme, UniProt P51160 1-830, looked up)
# chain: MGEINQVAVEKYLEENPQFAKEYFDRKLRVEVLGEIFKNSQVPVQSSMSFSELTQVEESALCLELLWTVQEEGGTPEQGVHRALQRLAHLLQADRCSMFLCRSRNGIPEVASRLLDVTPTSKFEDNLVGPDKEVVFPLDIGIVGWAAHTKKTHNVPDVKKNSHFSDFMDKQTGYVTKNLLATPIVVGKEVLAVIMAVNKVNASEFSKQDEEVFSKYLNFVSIILRLHHTSYMYNIESRRSQILMWSANKVFEELTDVERQFHKALYTVRSYLNCERYSIGLLDMTKEKEFYDEWPIKLGEVEPYKGPKTPDGREVNFYKIIDYILHGKEEIKVIPTPPADHWTLISGLPTYVAENGFICNMMNAPADEYFTFQKGPVDETGWVIKNVLSLPIVNKKEDIVGVATFYNRKDGKPFDEHDEYITETLTQFLGWSLLNTDTYDKMNKLENRKDIAQEMLMNQTKATPEEIKSILKFQEKLNVDVIDDCEEKQLVAILKEDLPDPRSAELYEFRFSDFPLTEHGLIKCGIRLFFEINVVEKFKVPVEVLTRWMYTVRKGYRAVTYHNWRHGFNVGQTMFTLLMTGRLKKYYTDLEAFAMLAAAFCHDIDHRGTNNLYQMKSTSPLARLHGSSILERHHLEYSKTLLQDESLNIFQNLNKRQFETVIHLFEVAIIATDLALYFKKRTMFQKIVDACEQMQTEEEAIKYVTVDPTKKEIIMAMMMTACDLSAITKPWEVQSQVALMVANEFWEQGDLERTVLQQQPIPMMDRNKRDELPKLQVGFIDFVCTFVYKEFSRFHKEITPMLSGLQNNRVEWKSLADEYDAKMKVIEEEA
# notes: human PDE6C, cone cGMP phosphodiesterase catalytic subunit, truncation of the C-terminal 28 residues (aa 1-830); GFP and PDE6C cDNAs were spliced with primers containing the HRV-3C site and a FLAG tag, cloned into pFastBac HT A by Gibson assembly; also called EGFP-PDE6C; source: Sf9 cells (baculovirus), alone or co-expressed with AIPL1 or with AIPL1 and Pγ; purified (EGFP-nanobody resin, HRV-3C …)
# Tests used:
# [1] = biological target: T1, trypsin-activated PDE6AB from mouse retina extract (mouse (endogenous in retina), UniProt P27664 1-859; P23440 1-856); assay: inhibition of enzyme activity (cGMP hydrolysis); trypsin-treated mouse retina extract inhibited by purified recombinant Pγr; 20 mM Tris-HCl pH 7.5, 120 mM NaCl, 2 mM MgSO4, 1 mM BME, 10 μM [3H]cGMP, 25 °C; conditions: one partner purified
# T1 construct: mouse rod PDE6 catalytic subunit PDE6A, after trypsin treatment of the retina lysate; mouse rod PDE6 catalytic subunit PDE6B, after trypsin treatment of the retina lysate; Trypsin treatment degrades the endogenous Pγ; The retina extract also holds a few percent of cone PDE6C activity; also called mouse rod PDE6; source: endogenous, C57BL/J mouse retina lysate, trypsin-treated; copies: 1 + 1
# T1 sequence (P27664 whole entry, chain 1 of 2): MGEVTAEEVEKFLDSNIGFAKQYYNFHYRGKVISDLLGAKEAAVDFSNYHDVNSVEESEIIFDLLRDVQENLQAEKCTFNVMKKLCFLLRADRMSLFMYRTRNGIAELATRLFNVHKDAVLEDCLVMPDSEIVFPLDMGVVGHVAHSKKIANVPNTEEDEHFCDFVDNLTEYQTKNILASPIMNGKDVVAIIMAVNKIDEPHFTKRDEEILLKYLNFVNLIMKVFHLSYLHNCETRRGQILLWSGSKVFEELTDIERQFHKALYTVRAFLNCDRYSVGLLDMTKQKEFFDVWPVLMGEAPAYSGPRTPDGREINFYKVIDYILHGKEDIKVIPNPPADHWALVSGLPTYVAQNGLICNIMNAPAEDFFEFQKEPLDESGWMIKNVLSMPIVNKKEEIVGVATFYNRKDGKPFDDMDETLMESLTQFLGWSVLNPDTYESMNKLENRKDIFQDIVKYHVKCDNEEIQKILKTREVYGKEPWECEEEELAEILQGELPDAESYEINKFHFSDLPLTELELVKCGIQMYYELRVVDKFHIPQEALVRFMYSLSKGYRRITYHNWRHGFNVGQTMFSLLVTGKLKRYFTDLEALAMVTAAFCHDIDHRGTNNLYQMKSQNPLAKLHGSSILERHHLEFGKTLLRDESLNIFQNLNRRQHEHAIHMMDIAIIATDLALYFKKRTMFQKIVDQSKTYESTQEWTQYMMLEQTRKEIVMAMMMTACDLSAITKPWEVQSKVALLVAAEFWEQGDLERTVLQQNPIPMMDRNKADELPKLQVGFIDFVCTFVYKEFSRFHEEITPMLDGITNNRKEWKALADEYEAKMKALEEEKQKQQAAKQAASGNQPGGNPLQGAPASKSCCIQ
# T1 sequence (P23440 whole entry, chain 2 of 2): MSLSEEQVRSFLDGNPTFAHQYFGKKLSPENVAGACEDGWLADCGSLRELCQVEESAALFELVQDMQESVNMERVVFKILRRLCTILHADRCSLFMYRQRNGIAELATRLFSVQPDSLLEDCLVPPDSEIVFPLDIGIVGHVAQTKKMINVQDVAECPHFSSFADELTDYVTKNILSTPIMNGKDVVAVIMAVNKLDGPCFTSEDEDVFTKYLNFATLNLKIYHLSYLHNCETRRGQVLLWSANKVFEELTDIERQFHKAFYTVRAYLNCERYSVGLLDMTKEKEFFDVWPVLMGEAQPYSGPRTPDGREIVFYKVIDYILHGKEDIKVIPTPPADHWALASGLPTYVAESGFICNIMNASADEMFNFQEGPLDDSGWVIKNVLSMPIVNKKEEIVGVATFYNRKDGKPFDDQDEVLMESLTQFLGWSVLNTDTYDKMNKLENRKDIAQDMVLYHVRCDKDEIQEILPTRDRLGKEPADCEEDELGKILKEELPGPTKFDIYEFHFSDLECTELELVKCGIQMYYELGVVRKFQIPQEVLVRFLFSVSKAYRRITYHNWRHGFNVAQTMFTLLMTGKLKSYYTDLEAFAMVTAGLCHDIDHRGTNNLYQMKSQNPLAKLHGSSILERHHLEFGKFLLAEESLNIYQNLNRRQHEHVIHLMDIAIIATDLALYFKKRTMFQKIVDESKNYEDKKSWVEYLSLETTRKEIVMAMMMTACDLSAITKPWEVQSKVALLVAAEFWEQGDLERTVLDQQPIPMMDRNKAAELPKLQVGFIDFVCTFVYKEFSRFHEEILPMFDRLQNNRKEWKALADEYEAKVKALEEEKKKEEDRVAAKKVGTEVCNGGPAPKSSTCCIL
# [2] = biological target: B2; assay: inhibition of enzyme activity (cGMP hydrolysis); purified PDE6C (co-expressed with AIPL1) inhibited by purified recombinant Pγr; 20 mM Tris-HCl pH 7.5, 120 mM NaCl, 2 mM MgSO4, 1 mM BME, 10 μM [3H]cGMP, 25 °C; conditions: both partners purified
# [3] = biological target: the molecule itself; assay: SEC; PDE6C co-expressed with AIPL1, eluted from EGFP-nanobody resin with HRV-3C, preincubated with 3 mM ATP for 10 min at 25 °C; Superose 6 10/300 GL in 10 mM HEPES pH 7.5, 150 mM NaCl, 1 mM TCEP, 2 mM MgCl2
Binder,Ki [1],Ki [2],stoichiometry N [3]
B1,0.089 nM,0.095 nM and 0.088 nM,
B2,,,2
